Data reported in publication PMC3573263 (Chemical biology & drug design, 2013).
[ ]: non-standard residue; d: D form. The star is where a group is joined. Biotin = O=C1N[C@H]2[C@H](CS[C@H]2CCCCC(=O)*)N1; pY = N[C@@H](Cc1ccc(OP(=O)(O)O)cc1)C(=O)O

Biological target: YopH PTPase domain (active catalytic domain, residues 164-468), wild type (Yersinia pestis, UniProt O68720 164-468)
Test: SPR

B1: biotinylated pTyr-EGFR peptide, biotin-LVDADEpYLIPQQG-COOH (peptide)
peptide: Biotin-LVDADE[pY]LIPQQG-OH
SMILES: CC[C@H](C)[C@H](NC(=O)[C@H](CC(C)C)NC(=O)[C@H](Cc1ccc(OP(=O)(O)O)cc1)NC(=O)[C@H](CCC(=O)O)NC(=O)[C@H](CC(=O)O)NC(=O)[C@H](C)NC(=O)[C@H](CC(=O)O)NC(=O)[C@@H](NC(=O)[C@H](CC(C)C)NC(=O)CCCC[C@@H]1SC[C@@H]2NC(=O)N[C@@H]21)C(C)C)C(=O)N1CCC[C@H]1C(=O)N[C@@H](CCC(N)=O)C(=O)N[C@@H](CCC(N)=O)C(=O)NCC(=O)O
B1 showed a koff of 0.0214 s⁻¹ and a kon of 34.9 M⁻¹ s⁻¹.
